According to patent publication US20250250335A1 (SHENGHE CHINA BIOPHARMACEUTICAL, published 2025):
Where two headings read alike, the source gives them in different places.

B1: NEO-201 antibody (msIgG2a subtype) (antibody, V domains shown)
VH: QVQLVQSGAEVKKPGASVKVSCKASGYTFTDYAMHWVRQAPGQRLEWMGLISTYSGDTKYNQNFQGRVTMTVDKSASTAYMELSSLRSEDTAVYYCARGDYSGSRYWFAYWGQGTLVTVSS
VL: DIQMTQSPSSLSASVGDRVTITCQASENIYGALNWYQRKPGKSPKLLIYGASNLATGMPSRFSGSGSGTDYTFTISSLQPEDIATYYCQQVLSSPYTFGGGTKLEIKR
B2: Antibody 14 (antibody, V domains shown)
VH: EVQLVETGGGLVQPKGSLKLSCAASGFSFNTNAMNWVRQAPGKGLEWVARIRSKSNNYATYYADSVKDRFTISRDDSQSMLYLQMNNLKTEDTAMYYCVSFLSLMDYWGQGTSVTVSS
VL: QIVLTQSPAIMSASPGEKVTMTCSASSSISYMHWYQQKPGTSPKRWIYDTSKLASGVPARFSGSGSGTSYSLTISSMEAEDAATYYCHQRSSYPWTFGGGTKLEIK
notes: Mouse-derived hybridoma antibody; also called mouse-derived antibody 14
B3: Antibody 1 (antibody, V domains shown)
VH: QVQLKQSGAELVRPGASVKLSCKTSGYIFTSYWIHWVKQRSGQGLEWIARIYPGTGSTYYNEKFKGKATLTADKSSSTAYMQLSSLKSEDSAVYFCARSGFPLTTVPLDYWGQGTTLTVSS
VL: DVQITQSPSYLAASPGETITINCRASKSISKYLAWYQEKPGKTNKLLIYSGSTLQSGIPSRFSGSGSGTDFTLTISSLEPEDFAMYYCQQHNEYPFTFGSGTKLEIK
notes: Mouse-derived hybridoma antibody; also called mouse-derived antibody 1

Columns and labels:
[1] = target: T1, CEACAM5 on the surface of the tumor cells (HPAFII cells) (UniProt P06731 35-685); assay: flow cytometry on HPAFII cells (Mean-FITC); the cells carry CEACAM5 and CEACAM6, signal not divided between the two
T1 construct: whole, on cells
T1 sequence (looked up): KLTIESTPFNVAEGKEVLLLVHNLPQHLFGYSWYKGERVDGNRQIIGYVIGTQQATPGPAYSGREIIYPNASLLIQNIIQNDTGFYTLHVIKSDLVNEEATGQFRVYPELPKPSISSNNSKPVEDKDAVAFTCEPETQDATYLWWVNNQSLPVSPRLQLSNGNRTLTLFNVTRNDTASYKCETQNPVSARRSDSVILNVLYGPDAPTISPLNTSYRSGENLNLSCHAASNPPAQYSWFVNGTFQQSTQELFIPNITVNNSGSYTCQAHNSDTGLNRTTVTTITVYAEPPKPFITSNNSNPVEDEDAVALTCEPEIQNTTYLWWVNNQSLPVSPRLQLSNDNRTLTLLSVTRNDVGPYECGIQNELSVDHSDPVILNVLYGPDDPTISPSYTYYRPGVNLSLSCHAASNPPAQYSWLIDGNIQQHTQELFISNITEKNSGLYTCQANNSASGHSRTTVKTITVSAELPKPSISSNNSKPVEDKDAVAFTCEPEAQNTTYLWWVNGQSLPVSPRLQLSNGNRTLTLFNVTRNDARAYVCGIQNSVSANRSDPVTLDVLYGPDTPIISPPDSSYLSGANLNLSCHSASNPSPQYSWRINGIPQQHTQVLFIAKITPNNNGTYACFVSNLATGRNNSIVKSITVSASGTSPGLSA
Description: (§1) The antibody to be tested was taken as the initial concentration of 200 nM and diluted 5-fold with 6 gradients. The HPAFII cells (From USTC […] FOR ADVANCED STUDIES) in the incubator were taken out, and the cell suspension was transferred to a 15 mL centrifuge tube, centrifuged, and counted by resuspension in PBS. A blank control group (Blank), a negative control group (NC), an experimental group, a positive control group and the irrelevant antibody group were kept. […] The cell suspension was spread in a 96-well plate according to about 3×10⁵ cells/well. Centrifugation (1000 rpm, 5 min) was performed, followed by washing with PBS, re-centrifugation, and repeated twice to remove media residues. The supernatant was discarded, 100 μL of primary antibody solution and irrelevant antibody solution were added to the experimental group and irrelevant antibody group, respectively, and the cells were resuspended and incubated at room temperature for 1 h. The blank group, and the negative control group were incubated with an equal amount of PBS.
(§2) After 1 h, PBS was added to wash twice. After the supernatant was discarded, 100 μL of fluorescent secondary antibody dilution (Mouse-derived secondary antibody from Abcam ab6785) was added to each sample group, except for the blank group which was added with 100 μL of PBS. After incubation at room temperature and protected from light for 0.5 h, centrifugation was performed and PBS added to wash the samples twice. After the supernatant was discarded, 120 μL of PBS was added to resuspend and sequentially flow cytometry was performed to detect the mean fluorescence intensity. The concentration of the antibody was logarithmically taken as the horizontal coordinate, and the Sigmoidaldose-response (VariableSlope) method (GraphPadPrism Software, GraphPadSoftware, San Diego, California) was chosen to perform a nonlinear regression to obtain the binding activity curves of the antibody on HPAFII cells.

[2] = target: T1, CEACAM5 on the surface of the tumor …; assay: as above; remark: listed apart in the source
Description: as §1
After 1 h, PBS was added to wash twice. […] After the supernatant was discarded, 120 μL of PBS was added to resuspend and sequentially flow cytometry was performed to detect the mean fluorescence intensity. […]

[3] = target: T2, human CEACAM5-his (ACRO CE5-H5226) (human, UniProt P06731 35-685); assay: SPR (Biacore), antibody captured on CM5 chip, antigen as analyte, 1:1 model
T2 construct: Bought protein; not shown: His tag
T2 sequence (looked up): T1 sequence (looked up)
Description: The CM5 sensor chip was activated at a flow rate of 10 μL/min for 420 seconds. The channel was then injected with 30 μg/mL of anti-rat Fc IgG in 10 mM NaAc (pH 4.5) at a flow rate of 10 μL/min. The chip was inactivated with 1 M ethanolamine-hydrochloric acid (GE) for 420 seconds at a flow rate of 10 μL/min.
Candidate antibodies in running buffer 1×HBS-EP+ (10 mM HEPES, 150 mM NaCl, 3 mM EDTA, 0.05% Tween 20, pH 7.4) were captured onto Fc2 with anti-rat Fc IgG at a flow rate of 10 μL/min. The 10 nM human CEACAM5-his protein or CEACAM-6-his or CEACAM6 (AB)-his protein and running buffer were sequentially injected into Fc1-Fc2 at a flow rate of […], bound for 180 seconds, and then dissociated for 3600 seconds. 10 mM glycine (pH 1.5) was injected as regeneration buffer after each dissociation.
Result plots for the reference channel Fc1 and the buffer channel were subtracted from the test result plots. The experimental data fit the 1:1 binding model. The molecular weight of 110 KDa was used to calculate the molar concentration of CEACAM5 protein, 55 KDa for human CEACAM6-his, and 55 KDa for human CEACAM6 (AB)-his.

[4] = target: T1, CEACAM5 on the surface of the tumor …; assay: flow cytometry on HPAFII cells (Mean-FITC); the cells carry CEACAM5 and CEACAM6, signal not divided between the two; remark: listed apart in the source
Description: as §1, §2

[5] = target: T2, human CEACAM5-his (ACRO CE5-H5226); assay: ELISA on coated human CEACAM5, OD450
Description: (§3) The binding activity of the antibodies to human CEACAM5, human CEACAM6, and human CEACAM6 (AB) proteins was detected by ELISA. The plate coated with proteins was incubated at 4° C. overnight, and the 96-well ELISA plate blocked with 2% PBS-BSA was added with the antibody to be detected and incubated at 37° C. for 1 h. After washing 3 times with PBS containing 0.05% Tween, the absorbance value of each well was read at wavelength 450 nm with the gradient-diluted mouse-derived candidate antibody as the primary antibody and anti-mouse-IgG-FC-HRP as the secondary antibody, and the absorbance value of each well was read at wavelength 450 nm after the TMB color development.

[6] = target: T2, human CEACAM5-his (ACRO CE5-H5226); assay: ELISA on coated human CEACAM5, OD450; remark: listed apart in the source
Outline: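 Plates coated overnight at 4 °C with antigen and blocked with 2% BSA in PBS received gradient-diluted mouse candidate antibodies for 1 h at 37 °C. Binding was detected with anti-mouse IgG Fc-HRP and TMB, read as OD450.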

[7] = target: T1, CEACAM5 on the surface of the tumor …; assay: flow cytometry on HPAFII cells (Mean-FITC); the cells carry CEACAM5 and CEACAM6, signal not divided between the two; remark: listed apart in the source
Description: as §1, §2

[8] = target: T3, human CEACAM6-his (ACRO CE6-H5223) (human, UniProt P40199 35-320); assay: ELISA on coated human CEACAM6, OD450
T3 construct: Bought protein; not shown: His tag
T3 sequence (looked up): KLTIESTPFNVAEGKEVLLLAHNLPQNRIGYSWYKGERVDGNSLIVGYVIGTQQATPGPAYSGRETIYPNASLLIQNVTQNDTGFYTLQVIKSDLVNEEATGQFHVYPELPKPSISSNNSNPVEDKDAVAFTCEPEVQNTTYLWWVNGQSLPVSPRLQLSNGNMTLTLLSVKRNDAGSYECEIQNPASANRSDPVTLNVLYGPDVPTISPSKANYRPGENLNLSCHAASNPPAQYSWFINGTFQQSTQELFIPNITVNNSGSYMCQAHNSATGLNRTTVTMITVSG
Description: as §3

[9] = target: T4, CEACAM6 on the surface of the tumor cells (HPAFII cells) (UniProt P40199 35-320); assay: flow cytometry on HPAFII cells (Mean-FITC); the cells carry CEACAM5 and CEACAM6, signal not divided between the two
T4 construct: whole, on cells
T4 sequence (looked up): T3 sequence (looked up)
Description: as §1, §2

mouse CEACAM5 = target: T5, mouse CEACAM5 (mouse, UniProt Q3UKK2 35-947, limits assumed); assay: ELISA on coated protein, OD450
T5 sequence (looked up): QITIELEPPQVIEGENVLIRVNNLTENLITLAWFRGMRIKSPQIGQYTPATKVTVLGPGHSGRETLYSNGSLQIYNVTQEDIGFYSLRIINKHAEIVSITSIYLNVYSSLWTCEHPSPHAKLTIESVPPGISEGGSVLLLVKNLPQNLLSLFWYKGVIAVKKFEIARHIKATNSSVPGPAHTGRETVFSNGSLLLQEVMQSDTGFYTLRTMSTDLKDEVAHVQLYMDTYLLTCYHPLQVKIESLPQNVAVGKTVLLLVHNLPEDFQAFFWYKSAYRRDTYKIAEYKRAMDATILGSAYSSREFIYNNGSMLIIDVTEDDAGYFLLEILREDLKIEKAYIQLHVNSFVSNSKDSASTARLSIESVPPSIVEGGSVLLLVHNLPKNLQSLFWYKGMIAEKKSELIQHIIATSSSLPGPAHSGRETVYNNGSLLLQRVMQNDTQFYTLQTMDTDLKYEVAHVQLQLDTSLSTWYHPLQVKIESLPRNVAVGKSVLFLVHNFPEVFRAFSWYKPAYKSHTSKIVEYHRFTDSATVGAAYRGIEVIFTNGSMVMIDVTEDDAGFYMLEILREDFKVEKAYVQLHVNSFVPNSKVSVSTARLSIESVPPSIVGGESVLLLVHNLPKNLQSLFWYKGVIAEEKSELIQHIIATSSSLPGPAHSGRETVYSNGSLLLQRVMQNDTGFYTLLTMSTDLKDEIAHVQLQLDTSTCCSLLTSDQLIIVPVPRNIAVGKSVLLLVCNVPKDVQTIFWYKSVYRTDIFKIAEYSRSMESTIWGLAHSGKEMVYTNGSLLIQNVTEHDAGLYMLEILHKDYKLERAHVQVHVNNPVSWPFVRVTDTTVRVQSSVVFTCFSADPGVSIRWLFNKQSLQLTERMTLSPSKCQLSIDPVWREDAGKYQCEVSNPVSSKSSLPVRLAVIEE
Outline: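 Plates coated overnight at 4 °C with mouse CEACAM5 protein, blocked with 2% BSA in PBS, then incubated with test antibody 1 h at 37 °C. Binding detected with HRP-conjugated goat anti-mouse IgG-Fc and TMB, absorbance read at 450 nm.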

Binder | EC50 (read off the curve) [1] [nM] | EC50 (read off the curve) [2] [µg/mL] | Kd [3] [nM] | EC50 (read off the curve) [4] [nM] | EC50 (read off the curve) [5] [µg/mL] | EC50 (read off the curve) [6] [µg/mL] | EC50 (read off the curve) [7] [nM] | binding result [8] | binding result [6] | binding result [9] | OD (mouse CEACAM5) [OD]
B1 | ~3 | ~0.6 | 5.05 | ~2 | ~0.004 | ~0.004 | ~3 |  |  |  | 
B2 |  |  |  |  |  |  |  | binds | binds |  | 
B3 |  |  |  |  | ~0.04 |  |  | binds |  | binds | 0.16
